Assay results from patent US12252711B2, “Osteoporosis model comprising calcium phosphate hydrogel composition and use thereof” (MEDIFAB CO., LTD., priority 2019, dated 2025).

What was measured:
Type in all cases: cell-based
[1] = test system: MC3T3-E1 cells; experiment: Differentiation of osteoblast progenitor culture mass in biogel (ALP/ACP assay, ALP staining); details: day 3 and day 7
Protocol: Osteoblasts progenitor cells, MC3TC-E1 were mixed with the biogel prepared in Example 6, in amounts of […], and 100 μL of each of the resulting mixture solution was gelled using a casting gel, to consequently yield three-dimensional culture mass, each containing 7×10^3 and 1×10^5 cells. Then, the three-dimensional culture mass were three-dimensionally cultured for 7 days in osteoblast media, which were formed by adding 10 mM of β-glycerophosphate (Sigma Aldrich, USA), 50 μg/ml of ascorbic acid (Sigma Aldrich, USA), and 10 nM of dexamethasone (Sigma Aldrich, USA) to growth media supplemented with α-MEM (Welgene, Korea) supplemented with 10% fetal bovine serum (FBS) (Gibco, USA), 100 U/ml of penicillin (Welgene, Korea), and […] of streptomycin (Welgene, Korea). Thereafter, on day 3 and day 7 of culturing, differences in the expression level of ALP protein, which is an early osteoblast differentiation factor, were examined at different cell densities of culture mass, using ALP assay kit (Abcam, ab83369) and ALP staining kit (Sigma, P5869). […]
(§1) Subsequently, on day 3 and day 7 of culturing, the MC3T3-E1 cells were measured for the osteoclast differentiation marker ACP, and the RAW264.7 cells were measured for the osteoblast differentiation marker ALP, to determine the influence of their respective differentiation markers on each other.

[2] = test system: RAW264.7 cells; experiment: Differentiation of osteoclast progenitor culture mass in biogel (ACP/ALP assay, TRAP staining); details: RAW264.7 in biogel, 100 ng/ml Rankl, compared to control group (GM)
Protocol: 8-2. Culturing of Osteoclasts Osteoclast progenitor cells RAW264.7 were mixed with the biogel prepared in Example 6, in amounts of 5×10^5 cells/ml, 7×10^5 cells/ml, 1×10^6 cells/ml, and 3×10^6 cells/ml, and 100 μL of each of the resulting mixture liquids was gelled using a casting gel, to consequently yield three-dimensional culture mass, each containing 5×10^4 cells, 7×10^4 cells, 1×10^5 cells, 3×10^5 cells, and […]. Then, the three-dimensional culture mass were three-dimensionally cultured for 7 days in osteoclast media, which were formed by adding 100 ng/ml of Rankl to growth media containing α-MEM (Welgene, Korea) supplemented with 10% fetal bovine serum (FBS) (Gibco, USA), 100 U/ml of penicillin (Welgene, Korea), and […] of streptomycin (Welgene, Korea). Then, using ACP assay kit (Abcam, ab83367) and TRAP staining kit (Sigma, 181A), differences in the expression level of osteoclast differentiation factor were examined at different cell numbers. […]
as §1

[3] = test system: MC3T3-E1 cells and RAW264.7 cells co-culture; experiment: Differentiation in 3D co-culture mass in biogel (ALP and ACP assay, ALP and TRAP staining)
Protocol: In detail, after dissolving 0.5% agarose in 300 mM CaCl2 solution, the Phenol Red solution was added in an amount of 5 mg/L to produce a casting gel solution. Then, after introducing 5-5.5 ml of the casting gel solution into a casting tray, a three-dimensional semi-spherical casting mold was inserted in the casting tray, and after completely solidifying the casting gel solution, the casting mold was carefully removed to produce a three-dimensional semi-spherical casting gel mold. The biogel, 1×10^5 cells/ml of osteoblast progenitor cells MC3T3-E1, and 5×10^4 cells/ml of osteoclast progenitor cells RAW264.7, were introduced into the casting gel mold and subjected to gelation to yield a three-dimensional co-culture mass. Then, the co-culture mass was cultured in the following media: media treated only with an osteoblast differentiation induction factor (+3F); media only treated with an osteoclast differentiation induction factor (+R); and media treated with both osteoblast differentiation induction factor and osteoclast differentiation induction factor (+3F+R). Then, osteoblast differentiation profiles were characterized through ALP expression levels.
9-2. Creating the bone resorption environment through co-culture of osteoblasts and osteoclasts Under the same conditions as shown in Example 9-1, osteoclast differentiation profiles were characterized by […].

B1: Rankl (protein, UniProt O14788 140-317, looked up)
Tumor necrosis factor ligand …: IRAEKAMVDGSWLDLAKRSKLEAQPFAHLTINATDIPSGSHKVSLSSWYHDRGWAKISNMTFSNGKLIVNQDGFYYLYANICFRHHETSGDLATEYLQLMVYVTKTSIKIPSSHTLMKGGSTKYWSGNSEFHFYSINVGGFFKLRSGEEISIEVSNPSLLDPDQDATYFGAFKVRDID
notes: 100 ng/ml of Rankl added to growth media
expression of osteoblast differentiation marker ALP [1]: little expression
expression of osteoclast differentiation marker ACP [1]: little expression
expression of osteoclast differentiation factor ACP [2]: increased
ALP expression (osteoblast differentiation) ([3]; combined treatment compared with osteoblast factor only): trace amount
ACP expression (osteoclast differentiation) ([3]; day 3 and day 7, combined treatment compared with osteoclast factor only): increased
